# The nanobody polyreactivity screen of Harvey et al. (2022)
# Assay: yeast display, Sf9 membrane polyspecificity reagent, FACS + sequencing; frameworks hold sequencing errors
# Summary of the method: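 In a synthetic yeast display library (Saccharomyces cerevisiae BJ5465), nanobody expression was induced with galactose for 36–48 hours. FACS gates were set low and high (top ~1%) using anti-HA fluorescence for expression and streptavidin fluorescence for binding of the Sf9 membrane reagent. Each polyreactivity label is drawn from the gate of origin.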
row,Sequence,polyreactivity (PSR sort gate)
1,QVQLVESGGGIVQAGGSLRLSCAASGSISAYYAMGWYRQAPGNERELVAAISWNGGRTYYADSVKGRFTISRDNAKNSVYLQMNSLKPEDTAVYYCAASPYYVVSTGGYDYDYWGQGTQVTVSS,high polyreactivity
2,QVQLVESGGGIVQAGGSLRLSCAASGSISSAYAMGWYRQAPGKERELVAVITSGGSTNYADSVKGRFTISRDNAKNTVYLQMNSLKQEDTAVYYCATPVASVTGYDYWGLGTQVTVSS,low polyreactivity
3,QVQLVESGGGIVQAGGSLRLSCAASGSTFNANGMGWYRQAPGKERELVAAISWRGSTYYADSVKGRFTISRDNAKNTVYLQMNSLKPEDTAVYYCAAYRYSWSYQYRYGYWGQGTQVTVSS,high polyreactivity
4,QVQLVESGGGIVQAGGSLRLSCAASGSTFRGNDMGWYRQAPGKERELVASIDWSGGSTYYADSVKGRFTISRDNAKNTVYLQMNSLKPEDTAVYYCAADTSYWYDYYIDYVGYYYWGQGTQVTVAS,high polyreactivity
5,QVQLVESGGGIVQAGGSLRLSCAASGSTFRGYAMGWYRQAPGKETELVAAITSRGTRTYYADSVKGRFTISRDNSKNTVSLQMNSLKPEDTAVYYCNVVSDIRLYYRYAYDYWGQGTQVTVSS,high polyreactivity
6,QVQLVESGGGIVQAGGSLRLSCAASGSTLDDYVMGWYRHAPGKDRQLVAAISSSGSGTYYADSVKGRFTISRDNAKNTVYLQMNSLKQEDTAVYYCAAAYSYSGYGYYTYDYWGLGTQVTVSS,low polyreactivity
7,QVQLVESGGGIVQAGGSLRLSCAASGSTLQYNAMGWYRQAPGKERELVAAITRISGSTYYADSVKGRFTISRDNAKNTVYLQMNSLKPEHTAVYYCAAVSYYYSGYDYWGQGTEVTVSS,high polyreactivity
8,QVQLVESGGGIVQAGGSLRLSCAASGTFVYYAMVMYRQPPGKERELVAGISDGSSTNYADSVKGRFTISRDNAKNTVYLQMNSLKPEDTAVYYCAKRYYSSGREHGYWGQGTQVTVSS,low polyreactivity
9,QVQLVESGGGIVQAGGSLRLSCAASGTTIEYNAMGWYRQAPGKERELVASSTNYADSVKGRFTISRDNAKNTVYFQMNILKPEDTAVYYCAREQGVNRNHDYWGQGTQVTVSS,low polyreactivity
10,QVQLVESGGGIVQAGGSLRLSCAASGYIFDHYAMGWYRQAPGKERELVAAISRSAGSTYYADSVKGRFTISRDNAKNTVYLQMKSLKPEDTAVYYCNAVVAVRSWRKYEYWGQGTQVTVSS,high polyreactivity
11,QVQLVESGGGIVQAGGSLRLSCASSGFTFNLYAMGWYRHAPGNERELVAAINWSGGTYYADSVKGRFTISRDNAKNNVYLQMKILKPEDTAVYYCNARYVYHSSFAGFDYWGQGTQVTVSS,low polyreactivity
12,QVQLVESGGGIVQAGGSLRLSCASSGSIFYWYAMGWYRQAPGKERELVAAISRSGGSTYYADSVKGRFTISRDNAKNTVYLQMNSLKPEDTAVYYCATELSYRHGYWGQGTQVTVSS,high polyreactivity
13,QVQLVESGGGIVQAGGSLRLSCDASGRIIGYYAMGWYRQAPGKERELVAAISRSGARTYYADSVKGRFTISRDNAKNTVYLQMNSLKPEDTAVYYCAAGPAPGHDSWGQGTQVTVSS,high polyreactivity
14,QVQLVESGGGIVQAGGSLRLSCSASGRNSGVNAMGSYRQAPGKERELVATISGSGGRTYYADSVKERFTISRDNAKNTVYLQMNSLKPEDTAVYYCNTLVQRGGYFSRGFDYWGQGTQVTVSS,low polyreactivity
15,QVQLVESGGGIVQAGGSLRLSFDASGFLFYSYAMGCYRQAPGKEREFVAAISWSGARTYYPDSVKGRFTISRDNAKNTVYLQMNSLKPEDTAVYYCIAVAFYPRSSRSWRLDYWGQGTQVTVSS,high polyreactivity
16,QVQLVESGGGIVQAGGSLRLSSAASGINFRYYAMGSSRPAPGKDRELVAVKSRDGTTYYADSVKGRFTISRDNAKNTVYLPMNSLKAADTAVYYCAKKAWVIYNRKFSSGYDYWGQGTQVNVSS,low polyreactivity
17,QVQLVESGGGIVQAGGSLRLSSAASGSIIFYYAMGWYRQPRGKEREFVAAITRSGVRTYYADSVKGRFTISRDNAKNTVYLQMNSLKPEDTAVYYCNDDYGFYRPVLMGFWGQGTQVTVSS,low polyreactivity
